In patent US20210070882A1 (Hoffmann-La Roche, published 2021):
Substitutions are numbered along the chain they refer to. “And” between values parts separate entries of the source, which are not always exact repeats. Identical values can stand only once. Like-named read-outs stand apart in the source and are kept apart here.

T1: human CD19 (human, UniProt P15391 20-556)
T1 sequence (looked up): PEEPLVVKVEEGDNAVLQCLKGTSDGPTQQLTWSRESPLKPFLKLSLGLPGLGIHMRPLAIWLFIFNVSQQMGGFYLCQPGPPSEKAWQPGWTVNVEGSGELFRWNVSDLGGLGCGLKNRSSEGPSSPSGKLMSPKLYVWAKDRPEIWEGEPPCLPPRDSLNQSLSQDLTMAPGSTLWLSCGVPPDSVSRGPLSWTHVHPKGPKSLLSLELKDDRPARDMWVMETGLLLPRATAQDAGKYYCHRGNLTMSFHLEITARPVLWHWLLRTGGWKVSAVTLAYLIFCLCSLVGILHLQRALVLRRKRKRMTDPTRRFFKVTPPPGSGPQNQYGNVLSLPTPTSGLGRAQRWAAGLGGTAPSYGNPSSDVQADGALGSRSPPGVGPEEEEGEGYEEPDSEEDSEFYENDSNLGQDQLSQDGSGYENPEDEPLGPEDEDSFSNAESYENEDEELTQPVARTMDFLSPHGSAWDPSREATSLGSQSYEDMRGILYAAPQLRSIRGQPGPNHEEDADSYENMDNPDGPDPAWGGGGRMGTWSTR

B1: Molecule B: 2+1 IgG CrossFab, inverted, without charge modifications (CH1/CL exchange in CD3 binder, parental murine CD19 binder 8B8) (bispecific antibody)
chain 1: EVQLQQSGPELVKPGASVKMACKASGYTFTDYIMHWVKQKTGQGLEWIGYINPYNDGSKYTEKFNGKATLTSDKSSITAYMELSSLTSEDSAVYYCARGTYYYGSALFDYWGQGTTLTVSSASTKGPSVFPLAPSSKSTSGGTAALGCLVKDYFPEPVTVSWNSGALTSGVHTFPAVLQSSGLYSLSSVVTVPSSSLGTQTYICNVNHKPSNTKVDKKVEPKSCDKTHTCPPCPAPEAAGGPSVFLFPPKPKDTLMISRTPEVTCVVVDVSHEDPEVKFNWYVDGVEVHNAKTKPREEQYNSTYRVVSVLTVLHQDWLNGKEYKCKVSNKALGAPIEKTISKAKGQPREPQVCTLPPSRDELTKNQVSLSCAVKGFYPSDIAVEWESNGQPENNYKTTPPVLDSDGSFFLVSKLTVDKSRWQQGNVFSCSVMHEALHNHYTQKSLSLSP
chain 2: not shown
chain 3: QAVVTQEPSLTVSPGGTVTLTCGSSTGAVTTSNYANWVQEKPGQAFRGLIGGTNKRAPGTPARFSGSLLGGKAALTLSGAQPEDEAEYYCALWYSNLWVFGGGTKLTVLSSASTKGPSVFPLAPSSKSTSGGTAALGCLVKDYFPEPVTVSWNSGALTSGVHTFPAVLQSSGLYSLSSVVTVPSSSLGTQTYICNVNHKPSNTKVDKKVEPKSC
chain 4: DAVMTQTPLSLPVSLGDQASISCRSSQSLENSNGNTYLNWYLQKPGQSPQLLIYRVSKRFSGVLDRFSGSGSGTDFTLKISRVEAEDLGVYFCLQLTHVPYTFGGGTKLEIKRTVAAPSVFIFPPSDEQLKSGTASVVCLLNNFYPREAKVQWKVDNALQSGNSQESVTEQDSKDSTYSLSSTLTLSKADYEKHKVYACEVTHQGLSSPVTKSFNRGEC
notes: also called CD19 TCB_8B8; CD19 TCB_8 B8
B2: DP47 TCB (untargeted TCB having an identical structure as molecule B but with the DP47 binder instead of a CD19 binder) (bispecific antibody)
heavy 1: not shown
heavy 2: not shown
light 1: B1 chain 3
light 2: not shown
notes: Negative control; also called untargeted TCB control; copies: 1 + 1 + 1 + 2
B3: Molecule D: 2+1 IgG CrossFab, inverted, without charge modifications (CH1/CL exchange in CD3 binder, murine CD19 binder 10C1) (bispecific antibody)
chain 1: B1 chain 3
chain 2: EVQLQQSGPELVKPGASVKMSCKASGYTFTSYVMHWVKQKPGQGLEWIGYINPYNDGTKFNEKFKGKATLTSDKSSSTAYMELSSLTSEDSAVYYCTRGVYYYGSSQGDYWGQGTTLTVSSASTKGPSVFPLAPSSKSTSGGTAALGCLVKDYFPEPVTVSWNSGALTSGVHTFPAVLQSSGLYSLSSVVTVPSSSLGTQTYICNVNHKPSNTKVDKKVEPKSCDKTHTCPPCPAPEAAGGPSVFLFPPKPKDTLMISRTPEVTCVVVDVSHEDPEVKFNWYVDGVEVHNAKTKPREEQYNSTYRVVSVLTVLHQDWLNGKEYKCKVSNKALGAPIEKTISKAKGQPREPQVCTLPPSRDELTKNQVSLSCAVKGFYPSDIAVEWESNGQPENNYKTTPPVLDSDGSFFLVSKLTVDKSRWQQGNVFSCSVMHEALHNHYTQKSLSLSP
chain 3: not shown
chain 4: B1 chain 4 with V56I, K58N, L64P, S68N, L96V, Y101W
notes: Same chain layout as molecule B (CD19 VL-CL light chain twice); also called CD19 TCB_10C1; CD19 TCB_10 C1

How the values were obtained:
human CD19 [1] = target: T1, human CD19; experiment: cell-based or functional assay
human CD19 [2] = target: T1, human CD19; experiment: cell-based or functional assay; remark: listed apart in the source
human CD19 [3] = target: T1, human CD19; experiment: cell-based or functional assay; remark: listed apart in the source
human CD19 [4] = target: T1, human CD19; experiment: flow cytometry on CD19-expressing Raji cells
Description: (§1) The binding of CD19 IgGs and CD19 TCBs to human CD19- and CD3-expressing target cells was tested using CD19-expressing Burkitt's lymphoma cells (Raji) and CD3-expressing immortalized T lymphocyte line (Jurkat). Briefly, cells were harvested, counted, checked for viability and resuspended at 2×10⁶ cells/ml in FACS buffer (100 μl PBS 0.1% BSA). 100 μl of cell suspension (containing 0.2×10⁶ cells) were incubated in round-bottom 96-well plate for 30 min at 4° C. with increasing concentrations of the CD19 IgGs and CD19 TCBs (10 pM-200 nM), washed twice with cold PBS 0.1% BSA, re-incubated for further 30 min at 4° C. with the PE-conjugated AffiniPure F(ab′)2 Fragment goat anti-human IgG Fcg Fragment Specific secondary antibody (Jackson Immuno Research Lab PE #109-116-170), washed twice with cold PBS 0.1% BSA and immediately analyzed by FACS using a FACS Cantoll (Software FACS Diva) by gating live, DAPI-negative, cells.

human CD19 [5] = target: T1, human CD19; experiment: cell-based or functional assay; remark: listed apart in the source
human CD19 [6] = target: T1, human CD19; experiment: cell-based or functional assay; remark: listed apart in the source
human CD19 [7] = target: T1, human CD19; experiment: cell-based or functional assay; remark: listed apart in the source
human CD19 [8] = target: T1, human CD19; experiment: cell-based or functional assay; remark: listed apart in the source
human CD19 [9] = target: T1, human CD19; experiment: cell-based or functional assay; remark: listed apart in the source
human CD19 [10] = target: T1, human CD19; experiment: flow cytometry on Nalm-6 cells and normal human B cells
Description: The binding of different CD19 TCB antibody formats (based on 8B8 clone) was assessed on human CD19-expressing target cells (Nalm-6 and normal human B cells) and human CD3-expressing target cells (CD4, CD8 T cells and Jurkat cells). The following CD19 TCB antibody formats were tested: molecule B as shown in FIG. 2B (named in this example “CD19 TCB_2+1_no charges_inverted”) and molecule A as shown in FIG. 2A (named in this example “CD19 TCB_2+1_charges CD19_inverted”). […] Briefly, cells were harvested, counted, checked for viability and resuspended at 1.5×10⁶ cells/ml in FACS buffer (100 μl PBS 0.1% BSA).

human CD19 [11] = target: T1, human CD19; experiment: flow cytometry on CD19-expressing Raji cells; remark: listed apart in the source
Description: as §1

Binder | Tumor lysis EC50 (pM), Nalm-6 (human CD19 [1]) | Tumor lysis EC50 (pM), SUDHL-4 (human CD19 [1]) | T cell activation EC50 upon Z-138 lysis, CD25/CD4 (human CD19 [3]) | T cell activation EC50 upon Z-138 lysis, CD25/CD8 (human CD19 [3]) | T cell activation EC50 upon Z-138 lysis, CD69/CD4 (human CD19 [3]) | T cell activation EC50 upon Z-138 lysis, CD69/CD8 (human CD19 [3]) | EC50 (human CD19 [4]) | Tumor cell lysis Z-138 cells (21 h), EC50 (human CD19 [6]) | Tumor cell lysis Z-138 cells (21 h), EC50 (pM) (human CD19 [6]) | T cell activation EC50, CD25/CD4, Nalm-6 (human CD19 [8]) | T cell activation EC50, CD25/CD4, SUDHL-4 (human CD19 [8]) | T cell activation EC50, CD25/CD8, Nalm-6 (human CD19 [8]) | T cell activation EC50, CD25/CD8, SUDHL-4 (human CD19 [8]) | T cell activation EC50, CD69/CD4, Nalm-6 (human CD19 [8]) | T cell activation EC50, CD69/CD4, SUDHL-4 (human CD19 [8]) | T cell activation EC50, CD69/CD8, Nalm-6 (human CD19 [8]) | T cell activation EC50, CD69/CD8, SUDHL-4 (human CD19 [8]) | also measured
B1 | 1.7 pM | 0.8 pM | 2.4 pM | 2.4 pM | 1.8 pM | 2.7 pM | 4.1 nM and 0.795 µg/mL | 0.8 ng/mL | 4.1 pM | 3.3 pM | 3.9 pM | 0.7 pM | 2.1 pM | 0.9 pM | 2 pM | 0.8 pM | 2.7 pM | T cell activation EC50 upon lysis of Z-138 cells, CD25/CD4 (human CD19 [2]): 3.22 pM; T cell activation EC50 upon lysis of Z-138 cells, CD25/CD8 (human CD19 [2]): 1.86 pM; T cell activation EC50 upon lysis of Z-138 cells, CD69/CD4 (human CD19 [2]): 1.01 pM; T cell activation EC50 upon lysis of Z-138 cells, CD69/CD8 (human CD19 [2]): 0.83 pM; T cell activation EC50 upon lysis of Z-138 cells, CD107/CD4 (human CD19 [2]): 1.68 pM; T cell activation EC50 upon lysis of Z-138 cells, CD107/CD8 (human CD19 [2]): 1.32 pM; Tumor cell lysis Z-138 cells (21 h), EC50 (human CD19 [5]): 0.62 ng/mL; Tumor cell lysis Z-138 cells (21 h), EC50 (pM) (human CD19 [5]): 3.16 pM; T cell activation EC50 upon lysis of Z-138 cells, CD25/CD4 (human CD19 [7]): 2.77 pM; T cell activation EC50 upon lysis of Z-138 cells, CD25/CD8 (human CD19 [7]): 1.7 pM; T cell activation EC50 upon lysis of Z-138 cells, CD69/CD4 (human CD19 [7]): ~0.81 pM; T cell activation EC50 upon lysis of Z-138 cells, CD69/CD8 (human CD19 [7]): 0.82 pM; T cell activation EC50 upon lysis of Z-138 cells, CD107/CD4 (human CD19 [7]): 1.37 pM; T cell activation EC50 upon lysis of Z-138 cells, CD107/CD8 (human CD19 [7]): 1.22 pM; Tumor cell lysis Z-138 cells (21 h), EC50 (human CD19 [9]): 0.62 ng/mL; Tumor cell lysis Z-138 cells (21 h), EC50 (pM) (human CD19 [9]): 3.2 pM
B2 | – | – | – | – | – | – | – | – | – | – | – | – | – | – | – | – | – | binding result (human CD19 [10]): no binding
B3 | 2.1 pM | 3.4 pM | 6.7 pM | 5.9 pM | 4.5 pM | 5.7 pM | 7.7 nM and 1.49 µg/mL | 2.2 ng/mL | 11.1 pM | 11.8 pM | 9.7 pM | 3 pM | 7.2 pM | 5.6 pM | 5.2 pM | 3.8 pM | 10.5 pM | EC50 (human CD19 [11]): 3000 to 8000 pM
